According to publication PMC5573156 (Developmental cell, 2017):
Where two headings read alike, the source gives them in different places. Values belong to the molecule of their own block, whether it stands above or below them.

Legend:
[1] = target: microtubules polymerized from bovine brain tubulin (bovine) (UniProt Q6B856); test: single-molecule TIRF motility assay
[2] = target: bovine brain tubulin, unpolymerized (soluble αβ-tubulin dimer) (bovine) (UniProt Q6B856)
[3] = target: Kip3_(448) (S. cerevisiae) (UniProt P53086); test: BLI
[4] = target: Kip3_(438)-L11^KHC (S. cerevisiae) (UniProt P53086); test: BLI
[5] = target: Kip3_(438) (S. cerevisiae) (UniProt P53086); test: BLI
[6] = target: microtubules polymerized from bovine brain tubulin (bovine) (UniProt Q6B856); test: single-molecule TIRF motility assay; remark: listed apart in the source
[7] = target: GTPγS-stabilized Tub1^D118A yeast microtubules (S. cerevisiae, UniProt P09733 1-447; P02557 1-457, D118A); test: TIRF fluorescence intensity on immobilised microtubules
[8] = target: microtubules polymerized from bovine brain tubulin (bovine) (UniProt Q6B856); test: single-molecule TIRF motility assay; remark: listed apart in the source

Chain of microtubules polymerized from bovine brain tubulin (bovine) (Q6B856 whole entry, looked up): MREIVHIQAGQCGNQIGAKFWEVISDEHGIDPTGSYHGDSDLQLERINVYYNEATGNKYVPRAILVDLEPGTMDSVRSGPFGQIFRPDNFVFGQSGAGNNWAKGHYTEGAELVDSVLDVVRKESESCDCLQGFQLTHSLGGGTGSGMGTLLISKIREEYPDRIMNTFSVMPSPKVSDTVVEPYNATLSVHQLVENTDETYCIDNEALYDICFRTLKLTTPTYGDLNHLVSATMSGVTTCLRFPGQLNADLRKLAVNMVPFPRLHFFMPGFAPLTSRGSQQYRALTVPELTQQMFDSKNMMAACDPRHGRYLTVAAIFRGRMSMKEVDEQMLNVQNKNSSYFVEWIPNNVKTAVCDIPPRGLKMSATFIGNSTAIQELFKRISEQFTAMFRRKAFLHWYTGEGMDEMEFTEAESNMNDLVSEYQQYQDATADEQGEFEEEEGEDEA
Chain of GTPγS-stabilized Tub1^D118A yeast microtubules (P09733 whole entry D118A, chain 1 of 2): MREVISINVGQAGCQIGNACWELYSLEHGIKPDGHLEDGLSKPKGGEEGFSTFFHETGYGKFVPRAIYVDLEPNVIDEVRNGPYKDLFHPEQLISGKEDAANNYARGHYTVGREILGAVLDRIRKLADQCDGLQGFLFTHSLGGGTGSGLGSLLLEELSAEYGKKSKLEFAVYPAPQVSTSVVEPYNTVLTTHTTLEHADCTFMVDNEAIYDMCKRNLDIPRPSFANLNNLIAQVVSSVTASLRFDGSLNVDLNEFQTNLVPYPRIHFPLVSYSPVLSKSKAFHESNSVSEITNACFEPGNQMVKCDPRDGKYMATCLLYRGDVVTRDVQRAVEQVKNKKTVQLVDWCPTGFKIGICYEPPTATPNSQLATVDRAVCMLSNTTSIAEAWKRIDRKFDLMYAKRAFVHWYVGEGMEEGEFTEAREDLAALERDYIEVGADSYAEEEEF
Chain of GTPγS-stabilized Tub1^D118A yeast microtubules (P02557 whole entry, stated change not applied, chain 2 of 2): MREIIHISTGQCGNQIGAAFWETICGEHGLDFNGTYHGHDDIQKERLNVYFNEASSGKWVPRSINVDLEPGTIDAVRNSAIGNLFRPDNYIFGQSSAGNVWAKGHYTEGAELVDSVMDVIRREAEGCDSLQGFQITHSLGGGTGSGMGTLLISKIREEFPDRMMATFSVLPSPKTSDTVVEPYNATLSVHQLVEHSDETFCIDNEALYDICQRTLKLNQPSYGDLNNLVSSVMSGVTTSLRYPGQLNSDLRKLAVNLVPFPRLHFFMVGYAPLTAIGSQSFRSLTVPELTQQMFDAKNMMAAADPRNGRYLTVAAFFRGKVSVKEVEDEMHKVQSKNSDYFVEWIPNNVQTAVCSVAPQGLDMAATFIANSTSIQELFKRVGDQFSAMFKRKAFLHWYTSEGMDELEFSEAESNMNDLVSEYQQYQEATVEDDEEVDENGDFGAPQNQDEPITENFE

Molecule: KHC560-L11^Kip3 (from UniProt P33176 1-560)
steady-state ATPase: decrease of the KM for tubulin against kinesin-1 [2]: 9.4 fold

Molecule: bovine brain tubulin, unpolymerized (soluble αβ-tubulin dimer) (from UniProt Q6B856 1-445) (complex)
residence time (koff^-1) with ADP [3]: 35.7 s
fold change in tubulin binding affinity, Kip3 438 over Kip3 438-L11KHC [4]: 7 fold
lifetime of the complex [5]: 48 s

B1: Kip3FL (full-length Kip3, budding yeast kinesin-8) (natural protein, S. cerevisiae, UniProt P53086 1-805, looked up)
chain: MNVPETRQSSIVVAIRVRPFTSMEKTRLVNEASGAEANFPGLGDSSLILPMSNNSDSDIDIDAEEGSTRSKRNSLLRRKVIRPEGIRKIVDCVDDRMLIFDPADRNPLNKVSDQVLNSMRARATKATASSINNSNATNKFSSQRRRHGGEIKFVFDKLFDETSSQARVYKETTSPLLDSVLDGFNSTVFAYGATGCGKTYTVSGTPSQPGIIFLAMEELFNKITDLKDEKDFEISLSYLEIYNERIRDLLKPETPSKRLVIREDTQNHIKVANLSYHHPNTVEDVMDLVVQGNINRTTSPTEANEVSSRSHAVLQIHIMQTNKLVDLTSQHTFATLSIIDLAGSERAAATRNRGIRLHEGANINRSLLALGNCINALCLNDGSRSCHIPYRDSKLTRLLKFSLGGNCKTVMIVCISPSSSHYDETLNTLKYANRAKEIKTKIIRNQQSLSRHVGSYLKMITEQKRQIEELREREEKMISLKLTKYKLNKEKIQLAINECVNRVQQTYAGVETYQVAKTLKSLILCKRRFLQMVKLEVDNLILLFEREESTAAEMQPVISNCRMISGQLYNKIHELEMKFDETDTLSSVIHQVHSIDLNKLREMEDWDETYDLVYLESCLNQISELQRNEILVNSSIMTEKLMSDPGLNSRFKFLSKWLMNRTPNIESIIQDLVHIDEEFESFARTFIANPDSNFTNTNINIINTTAADLAVPAETLQRQNFSQKKVKWTSPDLSPSPMIEPQPELEPELHQDQDAIASEVDVSMQDTTFNEQGPSTPSAPTTAVPRRKMRSSLLTHQSLLATARK
modifications: TMR (HALO-TMR) on the HALO tag where labelled
plus-end dwell time [6]: 52.9 s
binding result [7]: binds
plus-end dwell time [8]: 38.2 s

The next lines start with the values.

plus-end residence time [1]: 52.1 s
Molecule: KHC560 with Kip3 Loop11 and Loop2 (from UniProt P33176 1-560)

plus-end dwell time [1]: 9.3 s
Molecule: Kip3FL-L2^KHC (from UniProt P53086 1-805)
